Assay results: US20090252754A1, “Vaccines containing the hiv tat protein as an adjuvant for the enhancement of cytotoxic t-cell responses” (priority 2003, published 2009)
Where a chain is given by its changes, count along the chain named. Like-named read-outs stand apart in the source and are kept apart here.

B1: oxidised Tat: oxidised form of the HIV-1 Tat protein, used as control (protein, UniProt P04608 1-86, looked up)
Protein Tat: MEPVDPRLEPWKHPGSQPKTACTNCYCKKCCFHCQVCFITKALGISYGRKKRRQRRRAHQNSQTHQASLSKQPTSQPRGDPTGPKE
modifications: oxidised
notes: oxidised form of the HIV-1 Tat protein, used as control
B2: Tat22: mutated HIV-1 Tat carrying glycine instead of cysteine 22 (SEQ ID NO 286) (protein)
chain: B1 Protein Tat with C22G, A58P, H59P, N61G, A67V, P77S

Legend:
LMP2 = LMP2 expression in splenocytes of mice treated i.m. with Tat (Western blot); type: in vivo; settings: Balb/c mice, 1 μg i.m., 3 consecutive treatments
Source text: Equal amounts of proteins were loaded on a 12% SDS-PAGE gel and electroblotted onto Protran nitrocellulose membranes (Schleicher & Schuell, Keene, Hampshire, USA). The blots were probed with antibodies specific for α2, LMP2, LMP7, MECL1, and PA28α subunits (Affinity, Exeter, UK) and developed by enhanced chemiluminescence (ECL, Amersham Pharmacia Biotech, Uppsala, SW).
Animal use was according to national and institutional guidelines. Seven-to-eight week old female Balb/c mice (Nossan, Milan, Italy) were injected with native monomeric biologically active Tat protein (1 μg) resuspended in degassed sterile PBS. Control mice were injected with oxidised Tat (1 μg) or with PBS alone. Samples (100 μl) were given by intramuscular (i.m.) injections in the quadriceps muscles of the posterior legs. Each experimental group consisted of three mice, and the experiment was repeated twice. Mice were boosted at days 11 and 20 after the first injection. Seven days after the last injection, animals were anaesthetised intraperitoneally (i.p.) with 100 μl of isotonic solution containing 1 mg of Inoketan (Virbac, Milan, Italy), and 200 μg Rompun (Bayer, Milan, Italy) and sacrificed to collect spleens. Mononuclear cells from individual spleens were purified using cells strainers, resuspended in PBS containing 20 mM EDTA, and treated with a red blood cells lysis buffer for 4 minutes at room temperature. […]

HIV-1 LTR = settings: in contrast to wild-type Tat, cited from earlier work
[1] = tested on: proteasome subunits (α2, LMP2, LMP7, MECL1) in Jurkat cells; experiment: Western blot of proteasome subunits in Jurkat cells expressing or treated with Tat, Tat mutants or Tat peptides; type: cell-based, human; settings: Jurkat cells expressing mutant
Procedure: Jurkat T cells expressing Tat or mutated Tat (referred to as Tat22, wherein a Cys at position 22 is mutated) have previously been described (1). Cells were cultured in a medium supplemented with 800 μg/ml neomycin (Sigma, St. Louise, […].).
Cells were lysed with glass beads as previously described (4). Supernatants were ultracentrifuged for 1 h at 100,000 g and loaded into an affinity column containing a matrix derivatised with the MCP21 mAb specific for the α2 subunit of the proteasome (Affinity, Exeter, UK). Proteasomes were eluted with 25 mM Tris-HCl pH 7.5 containing 2 M NaCl, and 0.5 ml fractions were collected. Homogeneity of the eluted material was confirmed by analysis of an aliquot by SDS 12% PAGE and Coomassie blue staining of the gel. Fractions containing proteasomes were combined and dialysed against 25 mM Tris-HCl pH 7.5. Protein concentration was determined using the BCA method (Pierce Chemical, Rockford, Ill.).
Equal amounts of proteins, or equal amounts of purified proteasomes, were loaded on a 12% SDS-PAGE and electro-blotted onto Protran nitrocellulose membranes (Schleicher & Schuell, Keene, Hampshire, USA). Blots were probed with Abs specific for α2, LMP2 LMP7, MECL1, and PA28α subunits (Affinity), and developed by enhanced chemi-luminescence (ECL, Amersham Pharmacia Biotech, Uppsala, SW).

Row | Molecule | LMP2 expression in splenocytes (LMP2) | reactivation of latent infection (HIV-1 LTR) | transactivation of the HIV-1 LTR (HIV-1 LTR) | reactivation of latent infection (HIV-1 LTR; listed as Tatcys22) | subunit composition of proteasomes [1]
1 | B1 | no effect | – | – | – | –
2 | B2 | – | do not induce | no effect | does not induce | modifies the subunit composition of proteasomes
